Experimental data taken from article doi:10.1101/2021.08.05.455185 (bioRxiv, 2021).
Read-outs that look alike come from different tables or passages of the source.

Assays:
[1] = biological target: the molecule itself; experiment: SEC
[2] = biological target: the molecule itself; experiment: SEC; remark: listed apart in the source

B1: Mycobacterium smegmatis guanosine 5'-monophosphate reductase (Msm GMPR), product of the guaB1 gene (enzyme, UniProt A0QYE8 1-478, looked up)
chain: MRFLDGHTPAYDLTYNDVFVVPGRSDVASRFDVDLSTVDGSGTTIPVVVANMTAVAGRRMAETVARRGGIVVLPQDLPITAVSETVDFVKSRDLVVDTPVTLSPEDSVSDANALLHKRAHGAAVVVFEGRPIGLVTEANCAGVDRFARVRDIALSDFVTAPVGTDPREVFDLLEHAPIDVAVMTAPDGTLAGVLTRTGAIRAGIYTPAVDAKGRLRIAAAVGINGDVGAKAQALAEAGADLLVIDTAHGHQAKMLDAIKAVASLDLGLPLVAGNVVSAEGTRDLIEAGASIVKVGVGPGAMCTTRMMTGVGRPQFSAVVECAAAARQLGGHVWADGGVRHPRDVALALAAGASNVMIGSWFAGTYESPGDLLFDRDDRPYKESYGMASKRAVAARTAGDSSFDRARKGLFEEGISTSRMSLDPARGGVEDLLDHITSGVRSTCTYVGAANLPELHEKVVLGVQSAAGFAEGHPLPAGW
[1]
  stoichiometry N: 4
[2]
  stoichiometry N: 8
